± gives the uncertainty stated by the source.

The record followed here is the supplement of paper PMC7877785.

A short description of the series: self-splicing fitness, log relative to wild type (ln ratio); higher = more splicing; Tetrahymena group I intron in knt gene, E. coli kanamycin selection, DiMSum; sequences stand for … in CUCUCU…GGAGGGAAAAGUUAUCAGGCAUGCACCUGGUAGCUAGUCUUUAAACCAAUAGAUUGCAUCGGUUUAAAAGGCAAGACCGUCAAAUUGCGGGAAAGGGGUCAACAGCCGUUCAGUACCAAGUCUCAGGGGAAACUUUGAGAUGGCCUUGCAAAGGGUAUGGUAAUAAGCUGACGGACAUGGUCCUAACCACGCAGCCAAGUCCUAAGUCAACAGAUCUUCUGUUGAUAUGGAUGCAGUUCACAGACUAAAUGUCGGUCGGGGAAGAUGUAUUCUUCUCAUAAGAUAUAGUCGGACCUCUCCUUAAUGGGAGCUAGCGGAUGAAGUGAUGCAACACUGGAGCCGCUGGGAACUAAUUUGUAUGCGAAAGUAUAUUGAUUAGUUUUGGAGUACUCGUGGUCG
In a few lines: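 DiMSum derived fitness as the error-weighted combination of fold changes across replicates, kanamycin versus no kanamycin, normalised to wild type. E. coli BL21(DE3) held the library, which randomised all eight P1ex-region intron nucleotides within the knt kanamycin-resistance gene on pET-22b(+). Six replicate transformations grew overnight at 37°C or 30°C on LB agar with or without 25 μg/mL kanamycin, also containing 100 μg/mL carbenicillin, 50 μM IPTG and 0.2% rhamnose, and pooled colonies were amplicon-sequenced on an Illumina HiSeq 2500.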

In the case of AAACAGCAAUAUUACGAUUC, the “self-splicing fitness (ln)” value (30 °C) was -2.04 ± 0.1 and the “self-splicing fitness (ln)” value (37 °C) was 0.0665 ± 0.091. Taken in the same sequence, the figures for CCAGAGCAAUAUUACGCCUU were -3.57 ± 0.25 and -2.37 ± 0.25.

Regarding CAUGAGCAAUAUUACGAGUU, under “37 °C”, the “self-splicing fitness (ln)” value is -2.6 ± 0.24. For the sequence AUGUAGCAAUAUUACGACUC, the “self-splicing fitness (ln)” value came out at 0.285 ± 0.12 (30 °C) and 0.585 ± 0.18 (37 °C). The corresponding values for AAGUAGCAAUAUUACGUCAC are -3.26 ± 0.15 and -3.73 ± 0.22. Taken in the same sequence, the figures for GCAUAGCAAUAUUACGAACA were -1.61 ± 0.13 and -1.34 ± 0.12. The corresponding values for CGCUAGCAAUAUUACGCCGG are -3.06 ± 0.29 and -2.24 ± 0.45. Regarding CGCAAGCAAUAUUACGCUCC, the “self-splicing fitness (ln)” value reads like this: (30 °C) -2.06 ± 0.27; (37 °C) -1.11 ± 0.38. The corresponding values for CACAAGCAAUAUUACGUACA are -3.03 ± 0.1 and -1.46 ± 0.1. Taken in the same sequence, the figures for UCAGAGCAAUAUUACGUCCG were -2.17 ± 0.2 and -1.14 ± 0.25. UCAGAGCAAUAUUACGACCU: where the note is “30 °C”, the “self-splicing fitness (ln)” value is -2.87 ± 0.36. Take UGCGAGCAAUAUUACGCGAA: the “self-splicing fitness (ln)” value (30 °C) was -3.08 ± 0.19 and the “self-splicing fitness (ln)” value (37 °C) was -2.19 ± 0.19.

With ACUCAGCAAUAUUACGGAGC, the “self-splicing fitness (ln)” value was -3.55 ± 0.21 (30 °C) and -1.76 ± 0.17 (37 °C). The corresponding values for AGCAAGCAAUAUUACGGUGA are -1.88 ± 0.11 and -0.835 ± 0.093. In the case of CGUGAGCAAUAUUACGAAAG, the “self-splicing fitness (ln)” value (30 °C) is -1.89 ± 0.17 and the “self-splicing fitness (ln)” value (37 °C) was -0.94 ± 0.16. The corresponding values for CCGUAGCAAUAUUACGCUAC are -4.65 ± 0.38 and -1.76 ± 0.21. On to UACAAGCAAUAUUACGAGCC, for which the “self-splicing fitness (ln)” value (30 °C) is -2.24 ± 0.48. GUGUAGCAAUAUUACGUUCU: the “self-splicing fitness (ln)” value was -0.842 ± 0.09 (30 °C) and 0.00858 ± 0.11 (37 °C). The corresponding values for AGCGAGCAAUAUUACGGUGG are -2.67 ± 0.15 and -2.11 ± 0.25.

As to GUCCAGCAAUAUUACGCUUC, the “self-splicing fitness (ln)” value reads like this: (30 °C) -1.38 ± 0.083; (37 °C) -0.138 ± 0.11. GGCUAGCAAUAUUACGAGUG: the “self-splicing fitness (ln)” value is, setting by setting: (30 °C) -0.589 ± 0.084; (37 °C) 0.347 ± 0.12. Consider GGAAAGCAAUAUUACGCGCG, for which the “self-splicing fitness (ln)” value reads like this: (30 °C) -0.394 ± 0.08; (37 °C) -0.275 ± 0.12. On to UCGGAGCAAUAUUACGCCUG, for which the “self-splicing fitness (ln)” value (30 °C) is -0.894 ± 0.26.

With GACUAGCAAUAUUACGUGUA, the “self-splicing fitness (ln)” value is, setting by setting: (30 °C) -1.06 ± 0.067; (37 °C) -0.258 ± 0.069.

On to CCUCAGCAAUAUUACGCUGU, for which the “self-splicing fitness (ln)” value is -2.84 ± 0.17 (30 °C) and -2.05 ± 0.25 (37 °C).

Consider UGUUAGCAAUAUUACGAAGU, for which the “self-splicing fitness (ln)” value by setting is: (30 °C) -3.08 ± 0.13; (37 °C) -2.76 ± 0.19. The corresponding values for ACGCAGCAAUAUUACGGUCA are -1.15 ± 0.069 and -0.339 ± 0.069.

As to CGGAAGCAAUAUUACGCUCA, the “self-splicing fitness (ln)” value is, setting by setting: (30 °C) -1.59 ± 0.17; (37 °C) 0.105 ± 0.18.

Consider UUCCAGCAAUAUUACGCUCU, for which the “self-splicing fitness (ln)” value (30 °C) is -3.04 ± 0.17 and the “self-splicing fitness (ln)” value (37 °C) was -1.26 ± 0.14.

As to UCGUAGCAAUAUUACGUUGU, the “self-splicing fitness (ln)” value was -4.46 ± 0.46 (30 °C) and -2.43 ± 0.23 (37 °C). Taken in the same sequence, the figures for UUAUAGCAAUAUUACGCUUG were -1.46 ± 0.19 and -0.162 ± 0.22. As to AGUAAGCAAUAUUACGUCGC, under “37 °C”, the “self-splicing fitness (ln)” value is -1.65 ± 0.31. Consider UAGUAGCAAUAUUACGGGGG, for which the “self-splicing fitness (ln)” value is, setting by setting: (30 °C) -4.33 ± 0.46; (37 °C) -2.8 ± 0.36. The corresponding values for UUCCAGCAAUAUUACGUGCG are -1.88 ± 0.1 and -1.59 ± 0.11. As to AACAAGCAAUAUUACGGAGU, the “self-splicing fitness (ln)” value (30 °C) is -2.72 ± 0.07 and the “self-splicing fitness (ln)” value (37 °C) was -1.58 ± 0.078. The corresponding values for GGUAAGCAAUAUUACGGGAU are -2.82 ± 0.27 and -0.913 ± 0.21. CCGCAGCAAUAUUACGACAC: the “self-splicing fitness (ln)” value is -2.84 ± 0.28 (30 °C) and -2.71 ± 0.38 (37 °C). Consider GAUAAGCAAUAUUACGCAUG, for which the “self-splicing fitness (ln)” value reads like this: (30 °C) -1.21 ± 0.084; (37 °C) -0.777 ± 0.11. The corresponding values for CCAGAGCAAUAUUACGUGAU are -3.93 ± 0.22 and -2.67 ± 0.28.
